Here are results for one substance from article PMC12697964.

Broadly, the stoichiometry N is the number of molecules, sites or subunits per partner or assembly.

The target in the experiment is N-terminal region deleted seYdjB-like protein (amino acid from 35 to 162) (Salmonella enterica). Briefly: SEC-MALS; Superdex 75 10/300 GL, SEC buffer (20 mM Tris-HCl pH 8.0, 150 mM NaCl), 0.6 mL/min; three-angle light scattering and refractive index detectors; BSA as reference. A general note: Size exclusion chromatography separates by hydrodynamic size, large species first.

“N-terminal region deleted seYdjB-like protein (amino acid from 35 to 162) (domain or fragment)” displayed a stoichiometry N of 2.
